Test results reported in article PMC2752052.

Substrate: NC(=O)c1ccc[n+]([C@@H]2O[C@H](COP(=O)([O-])OP(=O)(O)OC[C@H]3O[C@@H](n4cnc5c(N)ncnc54)[C@H](O)[C@@H]3O)[C@@H](O)[C@H]2O)c1
Assay: purified protein
Type: biochemical, Homo sapiens

B1: Sirt1 (Homo sapiens) (protein)
chain: ADEAALALQPGGSPSAAGADREAASSPAGEPLRKRPRRDGPGLERSPGEPGGAAPEREVPAAARGCPGAAAAALWREAEAEAAAAGGEQEAQATAAAGEGDNGPGLQGPSREPPLADNLYDEDDDDEGEEEEEAAAAAIGYRDNLLFGDEIITNGFHSCESDEEDRASHASSSDWTPRPRIGPYTFVQQHLMIGTDPRTILKDLLPETIPPPELDDMTLWQIVINILSEPPKRKKRKDINTIEDAVKLLQECKKIIVLTGAGVSVSCGIPDFRSRDGIYARLAVDFPDLPDPQAMFDIEYFRKDPRPFFKFAKEIYPGQFQPSLCHKFIALSDKEGKLLRNYTQNIDTLEQVAGIQRIIQCHGSFATASCLICKYKVDCEAVRGDIFNQVVPRCPRCPADEPLAIMKPEIVFFGENLPEQFHRAMKYDKDEVDLLIVIGSSLKVRPVALIPSSIPHEVPQILINREPLPHLHFDVELLGDCDVIINELCHRLGGEYAKLCCNPVKLSEITEKPPRTQKELAYLSELPPTPLHVSEDSSSPERTSPPDSSVIVTLLDQAAKSNDDLDVSESKGCMEEKPQEVQTSRNVESIAEQMENPDLKNVGSSTGEKNERTSVAGTVRKCWPNRVAKEQISRRLDGNQYLFLPPNRYIFHGAEVYSDSEDDVLSSSSCGSNSDSGTCQSPSLEEPMEDESEIEEFYNGLEDEPDVPERAGGAGFGTDGDDQEAINEAISVKQEVTDMNYPSNKS
  Km: 171 ± 23 µM
